Experimental data reported in patent US6646113 (University of Pennsylvania, dated 2003).
One block for each binder: values may come before it.

How the values were obtained:
[1] = target: T1, His-tagged SMN wild type, purified recombinant (human, UniProt Q16637 1-294); assay: in vitro binding of purified recombinant protein to GST-SIP1
T1 construct: E. coli BL21(DE3)pLysS, nickel chelation chromatography; also called His-SMN; His6-SMN; not shown: His6 tag (pET28 vector, detected with anti-T7 tag antibody)

[2] = target: T2, His-tagged SMNY272C, purified recombinant (human, UniProt Q16637 1-294); assay: as above
T2 construct: also called His-SMNY272C; SMNY272C recombinant protein; not shown: His6 tag (pET28 vector)

[3] = target: T3, SMN, endogenous protein in human cell extracts (human, UniProt Q16637 2-294); assay: co-IP with 2B1 from transfected 293T cells, Western blot
T3 construct: also called Survival of Motor Neurons protein

[4] = target: recombinant SMN protein (far-Western target) (human, UniProt Q16637 1-294, limits assumed); assay: far-Western with in vitro translated SIP1
myc-tagged SMN wild type = target: T4, myc-tagged SMN wild type (human, UniProt Q16637 1-294); assay: co-IP with 2E17 from transfected 293T cells, Western blot (association in a complex)
T4 construct: In vitro translated (35S) or expressed in transfected 293T cells; also called myc-SMN; mycSMN

myc-tagged SMNY272C = target: T5, myc-tagged SMNY272C (human, UniProt Q16637 1-294); assay: co-IP with 2E17 from transfected 293T cells, Western blot
T5 construct: In vitro translated (35S) or expressed in 293T cells

[5] = target: T3, SMN, endogenous protein in human cell …; assay: gel filtration (Superose 6 HR 10/30) of HeLa S100, Western blot
GST-SMN fusion protein [6] = target: T6, GST-SMN fusion protein (human, UniProt Q16637 1-294); assay: GST pull-down, 35S IVT protein
T6 construct: Recombinant from E. coli, immobilised on glutathione-Sepharose; also called GST-SMNwt; GST-SMN chimeric protein; not shown: glutathione S-transferase (GST) tag of vector pGEX-5X

GST alone = target: T7, GST alone (UniProt P08515 1-218 = GST); assay: GST pull-down, 35S IVT protein
T7 construct: Negative control on glutathione-Sepharose; also called glutathione S-transferase

GST-SMN fusion protein [7] = target: T6, GST-SMN fusion protein; assay: GST pull-down, 35S IVT protein (FIG. 44)
[8] = target: Sm D1 protein, in vitro translated and 35S-labeled (UniProt P62314 1-119); assay: GST pull-down, 35S IVT protein

T6 sequence (Q16637 whole entry, the tested form may be a part): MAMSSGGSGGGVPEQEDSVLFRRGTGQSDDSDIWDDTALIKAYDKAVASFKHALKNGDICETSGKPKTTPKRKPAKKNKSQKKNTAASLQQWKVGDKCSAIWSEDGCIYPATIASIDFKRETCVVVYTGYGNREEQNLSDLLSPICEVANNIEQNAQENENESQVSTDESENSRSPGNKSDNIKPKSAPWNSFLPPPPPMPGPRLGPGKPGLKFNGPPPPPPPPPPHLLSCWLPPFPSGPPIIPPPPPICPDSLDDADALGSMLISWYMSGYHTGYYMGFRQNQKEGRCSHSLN
T3 sequence (Q16637 2-294 limits assumed): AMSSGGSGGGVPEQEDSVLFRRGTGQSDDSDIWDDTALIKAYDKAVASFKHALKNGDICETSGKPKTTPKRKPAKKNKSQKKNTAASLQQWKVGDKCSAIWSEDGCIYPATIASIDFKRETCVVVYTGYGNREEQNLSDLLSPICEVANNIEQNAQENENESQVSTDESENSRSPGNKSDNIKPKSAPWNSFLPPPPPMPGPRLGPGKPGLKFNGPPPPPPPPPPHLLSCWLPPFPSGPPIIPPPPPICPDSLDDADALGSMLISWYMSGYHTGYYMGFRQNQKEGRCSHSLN
T4 sequence (Q16637 whole entry): as the sequence (Q16637 whole entry, the tested form may be a part) above
Sequence of recombinant SMN protein (far-Western target) (Q16637 whole entry): as the sequence (Q16637 whole entry, the tested form may be a part) above
T1 sequence (Q16637 whole entry): as the sequence (Q16637 whole entry, the tested form may be a part) above
T7 sequence (P08515 whole entry): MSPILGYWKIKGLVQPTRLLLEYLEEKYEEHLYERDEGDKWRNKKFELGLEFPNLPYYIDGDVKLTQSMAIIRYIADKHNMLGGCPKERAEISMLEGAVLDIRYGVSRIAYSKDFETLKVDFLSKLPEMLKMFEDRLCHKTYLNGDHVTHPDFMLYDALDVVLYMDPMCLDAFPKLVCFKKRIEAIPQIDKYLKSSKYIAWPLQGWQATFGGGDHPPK
T5 sequence (Q16637 whole entry Y272C): as the sequence (Q16637 whole entry, the tested form may be a part) above, with Y272C counted along it
T2 sequence (Q16637 whole entry Y272C): as the sequence (Q16637 whole entry, the tested form may be a part) above, with Y272C counted along it

binding result (GST-SMN fusion protein [7]): no binding
B7: myc-tagged SIP1ΔC162 (other, not shown: small tags and cut ends)
chain: MRRAELAGLKTMAWVPAESAVEELMPRLLPVEPCDLTEGFDPSVPPRTPQEYLRRVQIEAAQCPDVVVAQIDPKKLKRKQSVNISLSGCQPAPEGYSPTLQWQQQQVAQFSTVRQNVN

binding result [3]: no binding
binding result (GST-SMN fusion protein [7]): no binding
B8: myc-tagged SIP1ΔC89 (other, not shown: small tags and cut ends)
chain: MRRAELAGLKTMAWVPAESAVEELMPRLLPVEPCDLTEGFDPSVPPRTPQEYLRRVQIEAAQCPDVVVAQIDPKKLKRKQSVNISLSGCQPAPEGYSPTLQWQQQQVAQFSTVRQNVNKHRSHWKSQQLDSNVTMPKSEDEEGWKKFCLGEKLCADGAVGPATNESPGIDYVQIGFPPLLSIVSRMNQATV
notes: The whole entry must be cut by 89 residues at the C-terminus

binding result [8]: no binding
B9: GST-Gemin3 fusion protein (other)
chain: MAAAFEASGALAAVATAMPAEHVAVQVPAPEPTPGPVRILRTAQDLSSPRTRTGDVLLAEPADFESLLLSRPVLEGLRAAGFERPSPVQLKAIPLGRCGLDLIVQAKSGTGKTCVFSTIALDSLVLENLSTQILILAPTREIAVQIHSVITAIGIKMEGLECHVFIGGTPLSQDKTRLKKCHIAVGSPGRIKQLIELDYLNPGSIRLFILDEADKLLEEGSFQEQINWIYSSLPASKQMLAVSATYPEFLANALTKYMRDPTFVRLNSSDPSLIGLKQYYKVVNSYPLAHKVFEEKTQHLQELFSRIPFNQALVFSNLHSRAQHLADILSSKGFPAECISGNMNQNQRLDAMAKLKHFHCRVLISTDLTSRGIDAEKVNLVVNLDVPLDWETYMHRIGRAGRFGTLGLTVTYCCRGEEENMMMRIAQKCNINLLPLPDPIPSGLMEECVDWDVEVKAAVHTYGIASVPNQPLKKQIQKIERTLQIQKAHGDHMASSRNNSVSGLSVKSKNNTKQKLPVKSHSECGIIEKATSPKELGCDRQSEEQMKNSVQTPVENSTNSQHQVKEALPVSLPQIPCLSSFKIHQPYTLTFAELVEDYEHYIKEGLEKPVEIIRHYTGPGDQTVNPQNGFVRNKVIEQKVPVLASSSQSGDSESDSDSYSSRTSSQSKGNKSYLESSSDNQLKDSESTPVDDRISLEQPPNGTDTPNPEKYQESPGIQMKTRLKEGASQRAKQSRRNLPRRSSFRLQTEAQEDDWYDCHREIRLSFSDTYQDYEEYWRAYYRAWQEYYAAASHSYYWNAQRHPSWMAAYHMNTIYLQEMMHSNQ
notes: also called Gemin3-GST; not shown: glutathione S-transferase (GST) tag of vector pGEX-5X-3

The remaining lines, values behind:

B1: GST-SIP1 fusion protein (other, not shown: a dimerising Fc or GST)
chain: MRRAELAGLKTMAWVPAESAVEELMPRLLPVEPCDLTEGFDPSVPPRTPQEYLRRVQIEAAQCPDVVVAQIDPKKLKRKQSVNISLSGCQPAPEGYSPTLQWQQQQVAQFSTVRQNVNKHRSHWKSQQLDSNVTMPKSEDEEGWKKFCLGEKLCADGAVGPATNESPGIDYVQIGFPPLLSIVSRMNQATVTSVLEYLSNWFGERDFTPELGRWLYALLACLEKPLLPEAHSLIRQLARRCSEVRLLVDSKDDERVPALNLLICLVSRYFDQRDLADEPS
binding result [1]: binds
binding result [2]: binds

B2: myc-tagged SIP1 wild type (other, not shown: small tags and cut ends)
chain: B1 chain
notes: In vitro translated (35S) or expressed in 293T cells; also called myc-SIP1; myc-Gemin2
binding result [3]: binds

B3: SIP1 (human), in vitro translated and 35S-labeled (other)
chain: B1 chain
notes: Made in rabbit reticulocyte lysate; also called full-length SIP1; Gemin2
binding result [4]: binds

B4: SIP1 (Gemin2), endogenous protein in human cell extracts (other)
chain: B1 chain
binding result (myc-tagged SMN wild type): binds
binding result (myc-tagged SMNY272C): binds
binding result [5]: binds

B5: myc-ΔN548Gemin3 (other, not shown: small tags and cut ends)
chain: SVQTPVENSTNSQHQVKEALPVSLPQIPCLSSFKIHQPYTLTFAELVEDYEHYIKEGLEKPVEIIRHYTGPGDQTVNPQNGFVRNKVIEQKVPVLASSSQSGDSESDSDSYSSRTSSQSKGNKSYLESSSDNQLKDSESTPVDDRISLEQPPNGTDTPNPEKYQESPGIQMKTRLKEGASQRAKQSRRNLPRRSSFRLQTEAQEDDWYDCHREIRLSFSDTYQDYEEYWRAYYRAWQEYYAAASHSYYWNAQRHPSWMAAYHMNTIYLQEMMHSNQ
binding result (GST-SMN fusion protein [6]): no binding

B6: myc-ΔN368C277Gemin3 (other, not shown: small tags and cut ends)
chain: TSRGIDAEKVNLVVNLDVPLDWETYMHRIGRAGRFGTLGLTVTYCCRGEEENMMMRIAQKCNINLLPLPDPIPSGLMEECVDWDVEVKAAVHTYGIASVPNQPLKKQIQKIERTLQIQKAHGDHMASSRNNSVSGLSVKSKNNTKQKLPVKSHSECGIIEKATSPKELGCDRQSEEQMK
notes: also called ΔN368C272Gemin3
binding result (GST alone): no binding
